# Assay results as given in patent US20110269817.
# B1: Recombinant SIRT1 of the SIRT1 Fluorimetric Activity Assay/Drug Discovery Kit (AK-555; BIOMOL International) (protein)
# chain: MADEAALALQPGGSPSAAGADREAASSPAGEPLRKRPRRDGPGLERSPGEPGGAAPEREVPAAARGCPGAAAAALWREAEAEAAAAGGEQEAQATAAAGEGDNGPGLQGPSREPPLADNLYDEDDDDEGEEEEEAAAAAIGYRDNLLFGDEIITNGFHSCESDEEDRASHASSSDWTPRPRIGPYTFVQQHLMIGTDPRTILKDLLPETIPPPELDDMTLWQIVINILSEPPKRKKRKDINTIEDAVKLLQECKKIIVLTGAGVSVSCGIPDFRSRDGIYARLAVDFPDLPDPQAMFDIEYFRKDPRPFFKFAKEIYPGQFQPSLCHKFIALSDKEGKLLRNYTQNIDTLEQVAGIQRIIQCHGSFATASCLICKYKVDCEAVRGDIFNQVVPRCPRCPADEPLAIMKPEIVFFGENLPEQFHRAMKYDKDEVDLLIVIGSSLKVRPVALIPSSIPHEVPQILINREPLPHLHFDVELLGDCDVIINELCHRLGGEYAKLCCNPVKLSEITEKPPRTQKELAYLSELPPTPLHVSEDSSSPERTSPPDSSVIVTLLDQAAKSNDDLDVSESKGCMEEKPQEVQTSRNVESIAEQMENPDLKNVGSSTGEKNERTSVAGTVRKCWPNRVAKEQISRRLDGNQYLFLPPNRYIFHGAEVYSDSEDDVLSSSSCGSNSDSGTCQSPSLEEPMEDESEIEEFYNGLEDEPDVPERAGGAGFGTDGDDQEAINEAISVKQEVTDMNYPSNKS
# Target: BMAL1 acetylated at Lys537 (ectopically expressed together with CLOCK), Q9WTL8
# Sequence (Q9WTL8 other isoform, or with tags, fused parts or gaps): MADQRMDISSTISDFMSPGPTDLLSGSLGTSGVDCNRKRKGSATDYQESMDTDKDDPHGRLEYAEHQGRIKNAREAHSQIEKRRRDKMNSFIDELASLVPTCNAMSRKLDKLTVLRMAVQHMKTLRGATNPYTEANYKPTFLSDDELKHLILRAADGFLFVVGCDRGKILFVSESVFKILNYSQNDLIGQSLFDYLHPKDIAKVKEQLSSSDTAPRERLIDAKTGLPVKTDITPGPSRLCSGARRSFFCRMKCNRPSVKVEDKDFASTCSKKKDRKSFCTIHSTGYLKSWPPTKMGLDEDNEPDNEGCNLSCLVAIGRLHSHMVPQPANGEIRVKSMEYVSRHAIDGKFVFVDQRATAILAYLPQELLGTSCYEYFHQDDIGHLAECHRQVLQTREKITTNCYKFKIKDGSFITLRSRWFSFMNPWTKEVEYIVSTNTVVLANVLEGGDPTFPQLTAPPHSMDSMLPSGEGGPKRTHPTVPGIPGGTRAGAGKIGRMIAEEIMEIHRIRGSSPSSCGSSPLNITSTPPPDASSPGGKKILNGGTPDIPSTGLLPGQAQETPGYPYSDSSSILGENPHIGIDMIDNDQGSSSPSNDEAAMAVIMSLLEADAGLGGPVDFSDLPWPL
protein,measurement,value
B1,"in vitro deacetylation assay (immunoprecipitated Ac-BMAL1 with recombinant SIRT1, 5 mM NAD+ or 10 mM NAM, 90 min at 37 C; Western with Ac-BMAL1 antibody)",SIRT1 readily deacetylates BMAL1 in an in vitro deacetylation assay
